# Literature values as cited in US10669306B2, “Solid supports for use in solid-phase peptide synthesis, kits, and related methods” (UNIVERSITY OF WASHINGTON, priority 2016, dated 2020).
# Biological target: integrin αvβ3 receptor (Homo sapiens, UniProt P05106+P06756)
# Conditions: cyclic form; Prante, O., et al. Bioconjug. Chem. 2007, 18, 254
# integrin αvβ3 receptor, sequence (P06756 31-889 limits assumed): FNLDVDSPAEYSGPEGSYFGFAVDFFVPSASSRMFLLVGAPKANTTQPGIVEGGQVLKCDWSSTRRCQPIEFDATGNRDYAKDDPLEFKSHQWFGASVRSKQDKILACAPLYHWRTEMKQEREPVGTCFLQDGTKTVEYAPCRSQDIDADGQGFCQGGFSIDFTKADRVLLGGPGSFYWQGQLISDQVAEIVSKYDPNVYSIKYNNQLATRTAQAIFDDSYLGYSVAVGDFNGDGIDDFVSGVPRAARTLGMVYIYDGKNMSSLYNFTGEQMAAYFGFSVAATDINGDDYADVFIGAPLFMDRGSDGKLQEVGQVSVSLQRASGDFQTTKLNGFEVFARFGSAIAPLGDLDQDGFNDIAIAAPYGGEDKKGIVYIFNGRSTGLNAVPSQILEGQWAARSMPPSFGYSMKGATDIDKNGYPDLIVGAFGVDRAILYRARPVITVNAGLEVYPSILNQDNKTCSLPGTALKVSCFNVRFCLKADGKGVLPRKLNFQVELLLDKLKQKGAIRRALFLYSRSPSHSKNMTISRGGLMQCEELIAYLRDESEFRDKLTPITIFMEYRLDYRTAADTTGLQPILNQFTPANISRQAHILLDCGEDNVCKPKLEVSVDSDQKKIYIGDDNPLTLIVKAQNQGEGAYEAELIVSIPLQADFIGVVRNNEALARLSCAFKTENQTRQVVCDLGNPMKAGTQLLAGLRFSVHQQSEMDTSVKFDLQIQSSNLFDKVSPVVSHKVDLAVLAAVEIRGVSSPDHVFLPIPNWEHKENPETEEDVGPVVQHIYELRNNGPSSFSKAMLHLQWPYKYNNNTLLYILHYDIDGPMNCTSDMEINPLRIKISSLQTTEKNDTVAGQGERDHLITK
# integrin αvβ3 receptor, sequence (P06756 891-1048 partner limits assumed): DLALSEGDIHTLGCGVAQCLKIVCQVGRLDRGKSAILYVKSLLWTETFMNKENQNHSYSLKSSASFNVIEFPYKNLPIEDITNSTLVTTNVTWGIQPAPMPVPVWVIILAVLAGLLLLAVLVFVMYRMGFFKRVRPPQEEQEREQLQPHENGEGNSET
# integrin αvβ3 receptor, sequence (P05106 27-788): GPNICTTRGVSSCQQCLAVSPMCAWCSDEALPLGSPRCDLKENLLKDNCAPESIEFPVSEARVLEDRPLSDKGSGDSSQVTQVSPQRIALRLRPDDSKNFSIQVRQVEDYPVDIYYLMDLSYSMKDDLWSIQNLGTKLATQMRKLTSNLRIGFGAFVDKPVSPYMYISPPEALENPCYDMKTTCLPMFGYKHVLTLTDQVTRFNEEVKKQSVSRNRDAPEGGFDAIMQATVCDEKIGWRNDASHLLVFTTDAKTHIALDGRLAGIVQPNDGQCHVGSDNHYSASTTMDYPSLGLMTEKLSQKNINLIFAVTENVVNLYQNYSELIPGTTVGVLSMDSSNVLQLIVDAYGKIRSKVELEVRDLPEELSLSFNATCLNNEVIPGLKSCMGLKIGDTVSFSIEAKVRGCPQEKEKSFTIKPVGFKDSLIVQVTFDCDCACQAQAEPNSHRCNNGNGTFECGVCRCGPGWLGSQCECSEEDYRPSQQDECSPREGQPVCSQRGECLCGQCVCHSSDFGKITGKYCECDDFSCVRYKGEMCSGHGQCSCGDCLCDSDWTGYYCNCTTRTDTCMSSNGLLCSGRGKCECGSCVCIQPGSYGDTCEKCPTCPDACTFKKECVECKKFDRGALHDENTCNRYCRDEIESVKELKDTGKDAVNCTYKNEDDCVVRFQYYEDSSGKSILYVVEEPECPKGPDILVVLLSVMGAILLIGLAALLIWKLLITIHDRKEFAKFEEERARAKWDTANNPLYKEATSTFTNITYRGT
substance,measurement,value
"CRGD(D-F): Cyclic CRGD(D)-F, a commercially available integrin binding peptide (ANASPEC)",binding affinity for integrin αvβ3 receptor,nanomolar affinity
